{
  "source": "patent US20030228623A1",
  "key": {"[1]": {"target": "modified streptavidin Stv-38", "experiment": "phage on microtiter wells coated with Stv-38, washed, eluted with 3 mM biotin, plated on TG1 cells"}, "[2]": {"target": "streptavidin (streptavidin-coated magnetic beads, Dynal) (UniProt P22629)", "sequence (P22629 37-163 limits assumed)": "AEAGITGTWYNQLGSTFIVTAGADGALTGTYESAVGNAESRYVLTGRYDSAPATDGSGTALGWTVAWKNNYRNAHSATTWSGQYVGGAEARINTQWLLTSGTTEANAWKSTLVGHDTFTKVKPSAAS", "experiment": "phage incubated with streptavidin-coated beads, washed, released with Factor Xa, plated on TG1 cells"}, "[3]": {"target": "modified streptavidin Stv-38", "experiment": "phage on microtiter wells coated with Stv-38, washed, eluted with 3 mM biotin, plated on TG1 cells; input 159,500"}, "[4]": {"target": "modified streptavidin Stv-38", "experiment": "phage on microtiter wells coated with Stv-38, washed, eluted with 3 mM biotin, plated on TG1 cells; input 1,590,500"}, "[5]": {"target": "streptavidin (streptavidin-coated magnetic beads, Dynal) (UniProt P22629)", "experiment": "phage incubated with streptavidin-coated beads, washed, released with Factor Xa, plated on TG1 cells; 97,500 phage used"}, "[6]": {"target": "streptavidin (streptavidin-coated magnetic beads, Dynal) (UniProt P22629)", "experiment": "streptavidin-coated beads capture; phage from host cells grown without added biotin"}, "[7]": {"target": "streptavidin (streptavidin-coated magnetic beads, Dynal) (UniProt P22629)", "experiment": "streptavidin-coated beads capture; phage from host cells grown without added biotin; 109,000 phage used"}, "[8]": {"target": "modified streptavidin Stv-38", "experiment": "phage on microtiter wells coated with Stv-38, washed, eluted with 3 mM biotin, plated on TG1 cells; input 250,000"}, "[9]": {"target": "streptavidin (streptavidin-coated magnetic beads, Dynal) (UniProt P22629)", "experiment": "phage incubated with streptavidin-coated beads, washed, released with Factor Xa, plated on TG1 cells; 96,500 phage used"}, "[10]": {"target": "streptavidin (streptavidin-coated magnetic beads, Dynal) (UniProt P22629)", "experiment": "spores (in vivo), streptavidin-coated magnetic beads, washed, plated"}, "[11]": {"target": "streptavidin (streptavidin-coated magnetic beads, Dynal) (UniProt P22629)", "experiment": "spores (in vivo), streptavidin-coated magnetic beads, washed, plated; input 843,900"}, "[12]": {"target": "streptavidin (streptavidin-coated magnetic beads, Dynal) (UniProt P22629)", "experiment": "spores incubated in vitro with BirA, biotin and ATP, then streptavidin-coated beads"}, "[13]": {"target": "streptavidin (streptavidin-coated magnetic beads, Dynal) (UniProt P22629)", "experiment": "spores incubated in vitro with BirA, biotin and ATP, then streptavidin-coated beads; input 417,600"}, "[14]": {"target": "streptavidin (streptavidin-coated magnetic beads, Dynal) (UniProt P22629)", "experiment": "spores biotinylated in vivo, streptavidin-coated magnetic beads, washed, plated"}, "[15]": {"target": "streptavidin (streptavidin-coated magnetic beads, Dynal) (UniProt P22629)", "experiment": "spores biotinylated in vivo, streptavidin-coated magnetic beads, washed, plated; input 1,075,900"}, "[16]": {"target": "streptavidin (streptavidin-coated magnetic beads, Dynal) (UniProt P22629)", "experiment": "spores incubated in vitro with BirA, biotin and ATP, then streptavidin-coated beads; input 919,600"}, "[17]": {"target": "streptavidin (streptavidin-coated magnetic beads, Dynal) (UniProt P22629)", "experiment": "spores biotinylated in vivo, streptavidin-coated magnetic beads, washed, plated; input 10,000"}, "[18]": {"target": "streptavidin (streptavidin-coated magnetic beads, Dynal) (UniProt P22629)", "experiment": "spores (in vivo), streptavidin-coated magnetic beads, washed, plated; input 814,900"}, "[19]": {"target": "streptavidin (streptavidin-coated magnetic beads, Dynal) (UniProt P22629)", "experiment": "spores incubated in vitro with BirA, biotin and ATP, then streptavidin-coated beads; input 234,900"}, "[20]": {"target": "streptavidin (streptavidin-coated magnetic beads, Dynal) (UniProt P22629)", "experiment": "spores biotinylated in vivo, streptavidin-coated magnetic beads, washed, plated; input 919,300"}, "[21]": {"target": "streptavidin (streptavidin-coated magnetic beads, Dynal) (UniProt P22629)", "experiment": "spores incubated in vitro with BirA, biotin and ATP, then streptavidin-coated beads; input 176,900"}},
  "note": "Values joined by “and” are separate entries in the source; they are usually repeats but may differ in a detail not shown here. Identical values can stand only once.",
  "data": [
    {"substance": "bacteriophage G (M13 phage displaying on pIII the control peptide with the lysine recognized by BirA replaced by glycine) (from UniProt P69168 19-424)", "values": [
      {"measurement": "Ratio (%)", "setting": "[1]", "result": "0.002% and 0.004%"},
      {"measurement": "% bound", "setting": "[2]", "result": 0.013, "unit": "%"},
      {"measurement": "Bound", "setting": "[3]", "result": 7, "unit": "phage"},
      {"measurement": "Bound", "setting": "[4]", "result": 27, "unit": "phage"},
      {"measurement": "# of bound phage able to bind TG1 cells", "setting": "[5]", "result": 13, "unit": "phage"}
    ]},
    {"substance": "bacteriophage K (M13 phage displaying on coat protein pIII the 33-residue peptide recognized by BirA) (from UniProt P69168 19-424)", "values": [
      {"measurement": "% bound", "setting": "[6]", "result": 0.78, "unit": "%"},
      {"measurement": "Ratio (%)", "setting": "[1]", "result": "0.504% and 0.852%"},
      {"measurement": "% bound", "setting": "[2]", "result": 1.11, "unit": "%"},
      {"measurement": "# of bound phage", "setting": "[7]", "result": 850, "unit": "phage"},
      {"measurement": "Bound", "setting": "[8]", "result": 2130, "unit": "phage"},
      {"measurement": "# of bound phage able to bind TG1 cells", "setting": "[9]", "result": 1080, "unit": "phage"}
    ]},
    {"substance": "spores of PY79-BirA-1G (Fusion 1: peptide-G added to the C-terminus of CotB following residue 275) (from UniProt P07789 1-275)", "values": [
      {"measurement": "Ratio (%)", "setting": "[10]", "result": 0.0118, "unit": "%"},
      {"measurement": "Out (#)", "setting": "[11]", "result": 100, "unit": "spores"},
      {"measurement": "Ratio (%)", "setting": "[12]", "result": 0.299, "unit": "%"},
      {"measurement": "Out", "setting": "[13]", "result": 1250, "unit": "spores"}
    ]},
    {"substance": "spores of PY79-BirA-1K (Fusion 1: peptide-K added to the C-terminus of CotB following residue 275) (from UniProt P07789 1-275)", "values": [
      {"measurement": "Ratio (%)", "setting": "[14]", "result": 0.0279, "unit": "%"},
      {"measurement": "Ratio (%)", "setting": "[12]", "result": 3.26, "unit": "%"},
      {"measurement": "Out (#)", "setting": "[15]", "result": 300, "unit": "spores"},
      {"measurement": "Out", "setting": "[16]", "result": 30000, "unit": "spores"}
    ]},
    {"substance": "spores of PY79-BirA-2G (Fusion 2: peptide-G at the amino end of the first 275 amino acids of CotB) (from UniProt P07789 1-275)", "values": [
      {"measurement": "Ratio (%)", "setting": "[10]", "result": 0, "unit": "%"}
    ]},
    {"substance": "spores of PY79-BirA-2K (Fusion 2: peptide-K at the amino end of the first 275 amino acids of CotB) (from UniProt P07789 1-275)", "values": [
      {"measurement": "Ratio (%)", "setting": "[14]", "result": 9.2, "unit": "%"},
      {"measurement": "Out (#)", "setting": "[17]", "result": 920, "unit": "spores"}
    ]},
    {"substance": "spores of PY79-BirA-3G (Fusion 3: Fusion 1 with peptide-G, with the last 41 amino acids of CotB added to its C-terminus) (from UniProt P07789 1-275; P07789 340-380)", "values": [
      {"measurement": "Ratio (%)", "setting": "[10]", "result": 0.0049, "unit": "%"},
      {"measurement": "Out (#)", "setting": "[18]", "result": 240, "unit": "spores"},
      {"measurement": "Ratio (%)", "setting": "[12]", "result": 0.106, "unit": "%"},
      {"measurement": "Out", "setting": "[19]", "result": 250, "unit": "spores"}
    ]},
    {"substance": "spores of PY79-BirA-3K (Fusion 3: Fusion 1 with peptide-K, with the last 41 amino acids of CotB added to its C-terminus) (from UniProt P07789 1-275; P07789 340-380)", "values": [
      {"measurement": "Ratio (%)", "setting": "[14]", "result": 0.0283, "unit": "%"},
      {"measurement": "Ratio (%)", "setting": "[12]", "result": 0.071, "unit": "%"},
      {"measurement": "Out (#)", "setting": "[20]", "result": 260, "unit": "spores"},
      {"measurement": "Out", "setting": "[21]", "result": 125, "unit": "spores"}
    ]}
  ]
}
